According to patent US20090324601A1 (published 2009):

Assays:
[1] = molecular target: T1, Recombinant human sPDGFR-alpha (R&D catalog# 322-PR/CF) (human, UniProt P16234 24-528); experiment: Biacore T100 SPR, 22 C, mAb immobilised on CM5, sPDGFR-alpha injected, 1:1 fit
T1 construct: extracellular domain; Bought reagent; also called soluble PDGFRa; recombinant soluble PDGFR-alpha extracellular domain

[2] = molecular target: T2, PDGFR-alpha on human osteosarcoma MG-63 cells (human, UniProt P16234 24-1089); experiment: cell-based or functional assay
T2 sequence (P16234 24-1089): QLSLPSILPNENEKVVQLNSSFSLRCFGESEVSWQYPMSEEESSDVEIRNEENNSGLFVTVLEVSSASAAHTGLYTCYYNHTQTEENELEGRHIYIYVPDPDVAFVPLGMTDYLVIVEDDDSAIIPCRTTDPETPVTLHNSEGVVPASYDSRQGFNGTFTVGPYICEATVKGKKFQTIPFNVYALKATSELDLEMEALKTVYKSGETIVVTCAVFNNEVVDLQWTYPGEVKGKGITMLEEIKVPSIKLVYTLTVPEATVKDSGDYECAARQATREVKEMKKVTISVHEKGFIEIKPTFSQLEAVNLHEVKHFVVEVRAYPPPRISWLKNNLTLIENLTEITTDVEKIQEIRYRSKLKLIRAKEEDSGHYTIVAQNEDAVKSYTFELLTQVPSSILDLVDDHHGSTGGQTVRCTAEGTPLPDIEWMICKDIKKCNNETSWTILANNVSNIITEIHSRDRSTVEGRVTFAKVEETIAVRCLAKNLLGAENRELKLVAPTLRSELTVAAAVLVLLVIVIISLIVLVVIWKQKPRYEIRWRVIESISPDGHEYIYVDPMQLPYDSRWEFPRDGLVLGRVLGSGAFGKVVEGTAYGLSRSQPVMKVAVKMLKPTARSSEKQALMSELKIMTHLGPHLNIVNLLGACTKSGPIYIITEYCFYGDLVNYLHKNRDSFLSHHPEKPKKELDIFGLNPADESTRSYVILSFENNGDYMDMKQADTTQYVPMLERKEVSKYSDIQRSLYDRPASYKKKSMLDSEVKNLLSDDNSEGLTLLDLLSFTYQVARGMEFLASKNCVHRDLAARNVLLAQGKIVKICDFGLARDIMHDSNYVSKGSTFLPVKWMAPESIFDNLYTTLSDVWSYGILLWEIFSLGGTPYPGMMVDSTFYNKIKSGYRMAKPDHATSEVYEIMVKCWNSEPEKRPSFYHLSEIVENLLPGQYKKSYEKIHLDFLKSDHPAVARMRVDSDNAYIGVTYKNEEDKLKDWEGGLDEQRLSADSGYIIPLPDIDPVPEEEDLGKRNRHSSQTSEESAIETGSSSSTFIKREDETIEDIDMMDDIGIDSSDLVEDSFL

[3] = molecular target: T2, PDGFR-alpha on human osteosarcoma MG-63 …; experiment: FACS titration on MG-63 cells, 4 C, Cy5 goat anti-human detection
[4] = molecular target: T3, murine PDGFRa on NIH3T3 cells (murine, UniProt P26618 25-1089); experiment: FACS on NIH3T3 cells, 10 ug/ml antibody, goat anti-human IgG Cy5
T3 construct: whole, on cells; also called mouse PDGFR-alpha
T3 sequence (P26618 25-1089): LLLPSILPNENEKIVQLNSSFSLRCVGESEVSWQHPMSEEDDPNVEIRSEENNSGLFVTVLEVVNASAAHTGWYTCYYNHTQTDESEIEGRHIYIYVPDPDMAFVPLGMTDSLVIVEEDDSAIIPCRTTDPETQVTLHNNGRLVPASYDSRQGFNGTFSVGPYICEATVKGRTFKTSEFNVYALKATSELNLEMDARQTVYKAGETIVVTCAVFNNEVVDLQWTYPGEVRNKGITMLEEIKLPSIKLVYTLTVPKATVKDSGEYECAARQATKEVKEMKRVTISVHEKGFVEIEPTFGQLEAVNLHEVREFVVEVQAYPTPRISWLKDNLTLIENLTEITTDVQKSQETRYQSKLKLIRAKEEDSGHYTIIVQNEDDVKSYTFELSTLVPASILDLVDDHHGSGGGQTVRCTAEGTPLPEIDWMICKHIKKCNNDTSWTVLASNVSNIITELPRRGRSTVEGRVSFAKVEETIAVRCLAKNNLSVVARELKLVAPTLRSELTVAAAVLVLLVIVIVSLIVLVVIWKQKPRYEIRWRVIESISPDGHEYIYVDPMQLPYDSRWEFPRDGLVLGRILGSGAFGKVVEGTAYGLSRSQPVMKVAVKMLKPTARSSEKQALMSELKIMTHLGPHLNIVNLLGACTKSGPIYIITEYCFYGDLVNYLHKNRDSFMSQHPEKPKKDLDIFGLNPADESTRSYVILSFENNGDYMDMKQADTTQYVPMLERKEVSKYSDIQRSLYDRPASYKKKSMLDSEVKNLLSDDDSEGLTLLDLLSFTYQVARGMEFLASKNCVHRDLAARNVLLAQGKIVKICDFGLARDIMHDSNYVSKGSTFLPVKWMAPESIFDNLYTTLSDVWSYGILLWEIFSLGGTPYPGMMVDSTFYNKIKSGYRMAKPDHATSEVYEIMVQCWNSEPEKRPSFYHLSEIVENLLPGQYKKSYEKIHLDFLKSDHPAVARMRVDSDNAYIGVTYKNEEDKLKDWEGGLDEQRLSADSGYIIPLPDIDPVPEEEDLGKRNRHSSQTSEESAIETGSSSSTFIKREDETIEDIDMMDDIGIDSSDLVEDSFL

[5] = molecular target: T2, PDGFR-alpha on human osteosarcoma MG-63 …; experiment: cell-based or functional assay; remark: listed apart in the source
[6] = molecular target: T1, Recombinant human sPDGFR-alpha (R&D …); experiment: soluble PDGFRa binding ELISA, plate coated with recombinant human PDGFR-alpha

T1 sequence (P16234 24-528): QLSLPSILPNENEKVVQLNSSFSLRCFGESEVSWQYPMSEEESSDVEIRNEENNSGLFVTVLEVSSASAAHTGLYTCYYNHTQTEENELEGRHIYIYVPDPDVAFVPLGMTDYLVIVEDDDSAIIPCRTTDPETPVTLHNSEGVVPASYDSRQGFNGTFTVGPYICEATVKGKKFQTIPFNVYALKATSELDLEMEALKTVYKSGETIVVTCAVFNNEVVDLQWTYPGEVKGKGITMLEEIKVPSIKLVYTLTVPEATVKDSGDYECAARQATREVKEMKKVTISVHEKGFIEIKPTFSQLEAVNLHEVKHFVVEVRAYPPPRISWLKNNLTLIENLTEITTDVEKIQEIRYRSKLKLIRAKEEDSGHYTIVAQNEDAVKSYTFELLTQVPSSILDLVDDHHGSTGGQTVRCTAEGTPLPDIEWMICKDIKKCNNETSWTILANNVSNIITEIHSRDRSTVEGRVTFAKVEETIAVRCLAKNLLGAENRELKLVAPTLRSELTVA

- Kd [1]: 50 pM
- koff [1]: 2.59e-05 s⁻¹
- kon [1]: 516000 M⁻¹ s⁻¹
- PTYR Assay IC50 [2]: 0.028 µg/mL
- Kd [3]: 328 pM
- binding result [4]: binds
- Proliferation Assay: IC50 ng/ml (1-6-06) [5]: 67.3 ng/mL
- Proliferation Assay: IC50 ng/ml (1-23-06) [5]: 56.1 ng/mL
- Proliferation Assay: IC50 (1-6-06) [5]: 450 pM
- Proliferation Assay: IC50 (1-23-06) [5]: 370 pM
- pTyr Assay: % Inhibition @ 2 µg/ml [5]: 100%
- IC50 [6]: 0.038 µg/mL
B1: 2.175.3 (antibody, V domains shown)
VH: QVHLVESGGGLVKPGGSLRLSCAASGFTFSDYYMHWIRQAPGKGLEWVSYISRSGSLIYYVDSVKGRFTISRDNAKNSLNLQMNSLRAEDTAVYYCARGGPYSGSPFDYWGQGTLVTVSS
VL: DIQMTQSPSSLSASVGDRVTITCRPSQRISRYLNWYQQKPGKAPKFLIYAASSLPSGVPSRFSGSGSGTDFTLTISTLQPEDFATYYCQQSYSTPPWTFGQGTKVEIK
notes: identified by its values; also called mAb 2.175.3
